Source: article PMC12302650

Assays:
[1] = biological target: GDP-tubulin (biotinylated α/β-tubulin heterodimer with GDP-bound β-tubulin) (UniProt Q71U36)
[2] = biological target: GTP-tubulin (biotinylated α/β-tubulin heterodimer with GTP-bound β-tubulin) (UniProt Q71U36); assay: pull-down; supernatant depletion at equilibrium; varying concentrations of biotinylated GTP-tubulin on streptavidin-coated magnetic beads; BuGZ construct (or mEGFP control) in solution, BuGZ 1.19 μM; 4 °C; nocodazole present; depletion from the supernatant measured by immunoblotting
[3] = biological target: GDP-tubulin (biotinylated α/β-tubulin heterodimer with GDP-bound β-tubulin) (UniProt Q71U36); assay: pull-down; supernatant depletion at equilibrium, same assay as for GTP-tubulin but with bead-bound GDP-tubulin; BuGZ construct (or mEGFP control) in solution; fit with Equation S2 for wild-type BuGZ

GTP α-32P incorporation into GDP-tubulin at equilibrium, increase relative to controls [1]: 57.4%
Kd [2]: 408 nM
Kd [3]: 54.2 nM
Substance: BuGZ-ΔGLEBS (from UniProt Q7ZXV8 1-452) (natural protein)
